Data taken from patent US20140308301A1.

Key:
[1] = target: human CD44 (human) (UniProt P16070); assay: cell-based or functional assay
[2] = target: human CD44 (human) (UniProt P16070); assay: flow cytometry, Alexa647-RG7356 on CD19+CD5+ CLL B cells (n=59)
[3] = target: human CD44 (human) (UniProt P16070); assay: flow cytometry, Alexa647-RG7356 on CLL B cells with ZAP-70 expression
[4] = target: human CD44 (human) (UniProt P16070); assay: flow cytometry, Alexa647-RG7356 on CLL B cells with mutated IGVH gene
[5] = target: human CD44 (human) (UniProt P16070); assay: flow cytometry, Alexa647-RG7356 on CLL B cells with unmutated IGVH gene
[6] = target: human CD44 (human) (UniProt P16070); assay: flow cytometry, Alexa647-RG7356 on CD19+ normal B cells of healthy adults (n=8)
[7] = target: human CD44 (human) (UniProt P16070); assay: flow cytometry, Alexa647-RG7356 on CLL B cells with low or no ZAP-70 expression

internalization of cell surface CD44 (reduction of MFI of Alexa647-conjugated RG7356 on CLL cells at 37 C, flow cytometry) [1]: > 40% | median MFIR (MFI of CD44 mAb divided by MFI of control mAb) [2]: 132 | median MFIR (MFI of CD44 mAb divided by MFI of control mAb) [3]: 161 | median MFIR (MFI of CD44 mAb divided by MFI of control mAb) [4]: 118 | median MFIR (MFI of CD44 mAb divided by MFI of control mAb) [5]: 161 | median MFIR (MFI of CD44 mAb divided by MFI of control mAb) [6]: 112 | median MFIR (MFI of CD44 mAb divided by MFI of control mAb) [7]: 119
Substance: humanized anti-CD44 monoclonal antibody (RG7356, Roche)
